Results published in PMC11885566 (Communications Biology, 2025).

Target: SARS-CoV-2 XBB.1.16 RBD protein (SARS-CoV-2 Omicron XBB.1.16, strain)
Assay: BLI

B1: CYFN1006-1 (antibody, V domains shown)
VH: QMQLVQSGAEVKKPGESLKISCKGSGYTFSYYWIGWVRQMPGKGLEWMGIIYPGDSDTRYSPSFQGQVTISADKSISTAYLHWSSLKASDTAMYYCARQGDLGDWILLGYWGQGTLVTVSS
VL: QSALTQPRSVSGSLGQSVTISCTGISSDVGGDNYVSWYQQHPGKAPKLMIYDVSKRPSGVPDRFSGSKSGNTASLTISGLQADDEADYYCCSYALSRVVFGGGTMLTVL
Question: Which Kd does the source give for B1 here?
Answer: 1.37 nM
